Legend:
Experiment in all cases: two-hybrid library CCmax;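 note: natural log of median RNA to DNA barcode read ratio; higher means stronger binding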
[1] = biological target: T1, 4H1324-AA; details: mean of both orientations
T1 chain: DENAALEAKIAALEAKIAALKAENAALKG

[2] = biological target: T2, 4H2575-AA; details: mean of both orientations
T2 chain: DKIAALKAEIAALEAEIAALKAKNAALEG

[3] = biological target: T3, 4H2729-AA; details: mean of both orientations
T3 chain: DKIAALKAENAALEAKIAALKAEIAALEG

[4] = biological target: T4, 4H3427-AA; details: mean of both orientations
T4 chain: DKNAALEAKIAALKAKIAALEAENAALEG

[5] = biological target: T5, 4H1135-AA
T5 chain: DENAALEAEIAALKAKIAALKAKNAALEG

[6] = biological target: T6, 4H48-AA; details: mean of both orientations
T6 chain: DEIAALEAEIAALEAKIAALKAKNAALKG

[7] = biological target: T7, 4H881-AA; details: mean of both orientations
T7 chain: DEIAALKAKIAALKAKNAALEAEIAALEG

[8] = biological target: T8, 4H2505-AA; details: mean of both orientations
T8 chain: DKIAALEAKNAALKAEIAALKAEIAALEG

[9] = biological target: T9, 4H678-AA; details: mean of both orientations
T9 chain: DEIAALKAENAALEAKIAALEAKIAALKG

[10] = biological target: T10, 4H1636-AA; details: mean of both orientations
T10 chain: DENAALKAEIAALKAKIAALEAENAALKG

[11] = biological target: T11, 4H2754-AA; details: mean of both orientations
T11 chain: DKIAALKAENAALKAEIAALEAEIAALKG

[12] = biological target: T12, 4H780-AA; details: mean of both orientations
T12 chain: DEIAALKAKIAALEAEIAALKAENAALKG

[13] = biological target: T13, 4H2944-AA; details: mean of both orientations
T13 chain: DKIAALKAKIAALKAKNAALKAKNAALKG

[14] = biological target: T14, 4H122-AA; details: mean of both orientations
T14 chain: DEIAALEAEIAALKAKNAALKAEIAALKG

[15] = biological target: T15, 4H3343-AA; details: mean of both orientations
T15 chain: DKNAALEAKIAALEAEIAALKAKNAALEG

[16] = biological target: T16, 4H2949-AA; details: mean of both orientations
T16 chain: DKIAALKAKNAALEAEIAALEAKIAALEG

[17] = biological target: T17, 4H3627-AA; details: mean of both orientations
T17 chain: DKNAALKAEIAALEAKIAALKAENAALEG

[18] = biological target: T18, 4H2151-AA; details: mean of both orientations
T18 chain: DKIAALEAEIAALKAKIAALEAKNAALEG

[19] = biological target: T19, 4H906-AA; details: mean of both orientations
T19 chain: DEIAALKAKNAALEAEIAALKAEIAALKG

[20] = biological target: T20, 4H2354-AA; details: mean of both orientations
T20 chain: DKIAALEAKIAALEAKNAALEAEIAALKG

[21] = biological target: T21, 4H234-AA; details: mean of both orientations
T21 chain: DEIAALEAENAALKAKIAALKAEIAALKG

[22] = biological target: T22, 4H2277-AA; details: mean of both orientations
T22 chain: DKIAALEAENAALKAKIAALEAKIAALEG

[23] = biological target: T23, 4H335-AA; details: mean of both orientations
T23 chain: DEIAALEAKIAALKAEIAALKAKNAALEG

[24] = biological target: T24, 4H1867-AA; details: mean of both orientations
T24 chain: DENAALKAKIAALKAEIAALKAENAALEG

[25] = biological target: T25, 4H2165-AA; details: mean of both orientations
T25 chain: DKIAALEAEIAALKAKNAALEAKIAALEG

[26] = biological target: T26, 4H2190-AA; details: mean of both orientations
T26 chain: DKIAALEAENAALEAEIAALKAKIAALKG

[27] = biological target: T27, 4H2642-AA; details: mean of both orientations
T27 chain: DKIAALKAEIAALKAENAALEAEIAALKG

[28] = biological target: T28, 4H342-AA; details: mean of both orientations
T28 chain: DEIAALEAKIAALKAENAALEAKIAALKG

[29] = biological target: T29, 4H3844-AA; details: mean of both orientations
T29 chain: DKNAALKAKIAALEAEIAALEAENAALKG

[30] = biological target: T30, 4H2883-AA; details: mean of both orientations
T30 chain: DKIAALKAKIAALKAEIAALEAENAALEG

[31] = biological target: T31, 4H3921-AA; details: mean of both orientations
T31 chain: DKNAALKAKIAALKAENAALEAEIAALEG

[32] = biological target: T32, 4H429-AA; details: mean of both orientations
T32 chain: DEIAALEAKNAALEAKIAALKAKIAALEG

[33] = biological target: T33, 4H605-AA; details: mean of both orientations
T33 chain: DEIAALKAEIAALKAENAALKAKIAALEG

[34] = biological target: T34, 4H717-AA; details: mean of both orientations
T34 chain: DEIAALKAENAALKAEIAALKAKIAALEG

[35] = biological target: T35, 4H2837-AA; details: mean of both orientations
T35 chain: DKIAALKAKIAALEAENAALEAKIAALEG

[36] = biological target: T36, 4H1552-AA; details: mean of both orientations
T36 chain: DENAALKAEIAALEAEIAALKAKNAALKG

[37] = biological target: T37, 4H993-AA; details: mean of both orientations
T37 chain: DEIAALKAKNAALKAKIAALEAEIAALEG

[38] = biological target: T38, 4H566-AA; details: mean of both orientations
T38 chain: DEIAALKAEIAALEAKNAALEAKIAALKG

[39] = biological target: T39, 4H2393-AA; details: mean of both orientations
T39 chain: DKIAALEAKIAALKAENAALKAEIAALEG

[40] = biological target: T40, 4H1401-AA; details: mean of both orientations
T40 chain: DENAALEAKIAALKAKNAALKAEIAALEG

[41] = biological target: T41, 4H3606-AA; details: mean of both orientations
T41 chain: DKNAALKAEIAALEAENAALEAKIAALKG

[42] = biological target: T42, 4H3112-AA; details: mean of both orientations
T42 chain: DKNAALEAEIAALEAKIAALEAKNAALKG

[43] = biological target: T43, 4H317-AA; details: mean of both orientations
T43 chain: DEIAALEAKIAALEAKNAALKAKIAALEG

[44] = biological target: T44, 4H1153-AA; details: mean of both orientations
T44 chain: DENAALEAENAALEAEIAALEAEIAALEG

[45] = biological target: T45, 4H2466-AA; details: mean of both orientations
T45 chain: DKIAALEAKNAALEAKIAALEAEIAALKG

[46] = biological target: T46, 4H454-AA; details: mean of both orientations
T46 chain: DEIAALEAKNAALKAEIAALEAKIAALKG

[47] = biological target: T47, 4H794-AA; details: mean of both orientations
T47 chain: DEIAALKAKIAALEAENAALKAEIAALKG

[48] = biological target: T48, 4H2617-AA; details: mean of both orientations
T48 chain: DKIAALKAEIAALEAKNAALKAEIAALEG

[49] = biological target: T49, 4H3655-AA; details: mean of both orientations
T49 chain: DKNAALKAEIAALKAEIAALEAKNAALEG

[50] = biological target: T50, 4H2078-AA; details: mean of both orientations
T50 chain: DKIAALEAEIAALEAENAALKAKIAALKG

[51] = biological target: T51, 4H1352-AA; details: mean of both orientations
T51 chain: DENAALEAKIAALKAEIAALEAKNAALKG

DENAALEAEIAALKAKIAALKAKNAALEG [4H1135-AA]
interaction score [1]: -1.33
interaction score [2]: 0.484
interaction score [3]: -0.655
interaction score [4]: -1.05
interaction score [5]: -0.919
interaction score [6]: 0.894
interaction score [7]: -1.61
interaction score [8]: 1.53
interaction score [9]: -0.965
interaction score [10]: -0.92
interaction score [11]: -0.686
interaction score [12]: -1.44
interaction score [13]: -1.57
interaction score [14]: -1.24
interaction score [15]: -0.943
interaction score [16]: -1.21
interaction score [17]: 0.0922
interaction score [18]: -0.817
interaction score [19]: -1.37
interaction score [20]: -1.64
interaction score [21]: -1.27
interaction score [22]: -1.81
interaction score [23]: -0.173
interaction score [24]: 0.0539
interaction score [25]: -1.42
interaction score [26]: -1.27
interaction score [27]: -1.3
interaction score [28]: -1.17
interaction score [29]: 0.92
interaction score [30]: 1.22
interaction score [31]: -0.897
interaction score [32]: -1.27
interaction score [33]: -1.37
interaction score [34]: -1.4
interaction score [35]: -0.865
interaction score [36]: 0.834
interaction score [37]: 0.00688
interaction score [38]: -0.252
interaction score [39]: -1.45
interaction score [40]: -1.46
interaction score [41]: 0.227
interaction score [42]: 1.57
interaction score [43]: -0.38
interaction score [44]: -0.461
interaction score [45]: -1.49
interaction score [46]: -0.222
interaction score [47]: -1.61
interaction score [48]: -0.407
interaction score [49]: 1.88
interaction score [50]: -1.19
interaction score [51]: 0.703
